Series [1] addresses Saccharopolyspora erythraea iron-dependent regulator IdeR, wild type (Saccharopolyspora erythraea). Description: crystal structure; IdeR (WT, Q43A or P39G) with 1 mM CoCl2 or Fe(NH4)2(SO4)2 and 150 uM 30-bp double-stranded DNA (consensus or C10S1); space group C2, two IdeR dimers and one DNA duplex in the asymmetric unit.
For series [2] the target is unchanged. Description: crystal structure; Co2+-activated IdeR WT without DNA; 12 mg/ml protein with 1 mM CoCl2 and 0.3 mg/ml trypsin before crystallisation; 25% PEG 1500, 20°C; space group P1, one IdeR dimer in the asymmetric unit.
Series [3] deals with Saccharopolyspora erythraea IdeR Q43A variant (Saccharopolyspora erythraea). As to the kind of experiment: crystal structure; IdeR (WT, Q43A or P39G) with 1 mM CoCl2 or Fe(NH4)2(SO4)2 and 150 uM 30-bp double-stranded DNA (consensus or C10S1); space group C2, two IdeR dimers and one DNA duplex in the asymmetric unit.
The target of series [4] is Saccharopolyspora erythraea IdeR P39G variant (Saccharopolyspora erythraea). The series is described as above.
Series [5] has as its target T1, IdeR WT (Saccharopolyspora erythraea DSM 40517, UniProt A0ABF7PL34 1-231). As to the kind of experiment: EMSA; 30 uM Co2+; up to 22.5 uM dimer; EMSA: 15 mM Tris-acetate pH 7.3, 4 mM K-acetate, 10% glycerol, 17 ng/ul poly(dI-dC), 30 nM DNA, 30 uM Co2+, IdeR 15 nM-2.25 uM dimer, 20 min room temperature; 4% native gel at 4 C. The note with it: protein: recombinant, tags: N-terminal His6 removed by TEV, Gly-His remains before Met1, chain copies: 4, blunt.

The target of series [6] is T1, IdeR WT. Description: EMSA; 30 uM Co2+; EMSA: 15 mM Tris-acetate pH 7.3, 4 mM K-acetate, 10% glycerol, 17 ng/ul poly(dI-dC), 30 nM DNA, 30 uM Co2+, IdeR 15 nM-2.25 uM dimer, 20 min room temperature; 4% native gel at 4 C. The note with it: protein: recombinant, tags: N-terminal His6 removed by TEV, Gly-His remains before Met1, chain copies: 4, blunt. Background: Mobility shift assays separate free from complexed probe on a gel.

In series [7] the target is T1, IdeR WT. As to the kind of experiment: X-ray crystallography; Fe2+; two dimers per duplex; EMSA: 15 mM Tris-acetate pH 7.3, 4 mM K-acetate, 10% glycerol, 17 ng/ul poly(dI-dC), 30 nM DNA, 30 uM Co2+, IdeR 15 nM-2.25 uM dimer, 20 min room temperature; 4% native gel at 4 C. The note with it: protein: recombinant; tags: N-terminal His6 removed by TEV; Gly-His remains before Met1; chain copies: 4; blunt.

Series [8] has as its target T2, IdeR P39G (Saccharopolyspora erythraea DSM 40517, UniProt A0ABF7PL34 1-231, P39G). As to the kind of experiment: X-ray crystallography; Co2+; two dimers per duplex; EMSA: 15 mM Tris-acetate pH 7.3, 4 mM K-acetate, 10% glycerol, 17 ng/ul poly(dI-dC), 30 nM DNA, 30 uM Co2+, IdeR 15 nM-2.25 uM dimer, 20 min room temperature; 4% native gel at 4 C. The settings on record: protein: recombinant; tags: N-terminal His6 removed by TEV; Gly-His remains before Met1; chain copies: 4; blunt.

Series [9] deals with T1, IdeR WT. As to the kind of experiment: EMSA; 30 uM Co2+; one dimer bound; EMSA: 15 mM Tris-acetate pH 7.3, 4 mM K-acetate, 10% glycerol, 17 ng/ul poly(dI-dC), 30 nM DNA, 30 uM Co2+, IdeR 15 nM-2.25 uM dimer, 20 min room temperature; 4% native gel at 4 C. The note with it: protein: recombinant; tags: N-terminal His6 removed by TEV; Gly-His remains before Met1; chain copies: 4; label: 5' Cy5 on strand 1; blunt.

Series [10] concerns the target IdeR Q43A (Saccharopolyspora erythraea DSM 40517, UniProt A0ABF7PL34 1-231, Q43A). As to the kind of experiment: EMSA; 30 uM Co2+; EMSA: 15 mM Tris-acetate pH 7.3, 4 mM K-acetate, 10% glycerol, 17 ng/ul poly(dI-dC), 30 nM DNA, 30 uM Co2+, IdeR 15 nM-2.25 uM dimer, 20 min room temperature; 4% native gel at 4 C. The note with it: protein: recombinant; tags: N-terminal His6 removed by TEV; Gly-His remains before Met1; chain copies: 4; label: 5' Cy5 or 5' FAM on strand 1; blunt.

Series [11] concerns the target T2, IdeR P39G. The description is as above. The settings on record: protein: recombinant; tags: N-terminal His6 removed by TEV; Gly-His remains before Met1; chain copies: 4; label: 5' Cy5 or 5' FAM on strand 1; blunt.

16 molecules from article PMC8464063, “The bacterial iron sensor IdeR recognizes its DNA targets by indirect readout” can be followed below.

Broadly, the stoichiometry N is the number of molecules, sites or subunits per partner or assembly. As to “Saccharopolyspora erythraea iron-dependent regulator IdeR, wild type (natural protein)”, the stoichiometry N in series [1] and in series [2] was 2 throughout. With “Saccharopolyspora erythraea IdeR Q43A variant (natural protein)”, the stoichiometry N in series [3] was 2. As for “Saccharopolyspora erythraea IdeR P39G variant (natural protein)”, the stoichiometry N in series [4] turned out to be 2.

B1: Minimal_NCTNN (dsDNA)
DNA 1: CGTACGCAGACGAGACTCGTCTGCGCTACG
DNA 2: CGTAGCGCAGACGAGTCTCGTCTGCGTACG
With B1, the binding result in series [5] (label: 5' FAM on strand 1) was “no binding”.

B2: Consensus_A4A5-S4S5 (dsDNA)
DNA 1: CGTACGCAGGCGAGGCTCGCCTGCGTACG
DNA 2: CGTACGCAGGCGAGCCTCGCCTGCGTACG
The term Kd denotes the constant that tells how readily two partners part at equilibrium. With B2, the Kd in series [6] (label: 5' Cy5 on strand 1) is around 128 nM.

B3: Cons_long (crystal) (dsDNA)
DNA 1: CGTACTTAGGTTAGGCTAACCTAAGTCACG
DNA 2: CGTGACTTAGGTTAGCCTAACCTAAGTACG
In the case of B3, the binding result in series [7] and in series [8] was “binds” throughout.

B4: Consensus_C1-T1 (dsDNA)
DNA 1: CGTACTTAGATTAGACTAATCTAAGTACG
DNA 2: CGTACTTAGATTAGTCTAATCTAAGTACG
Consider B4, for which, in series [6] (label: 5' Cy5 on strand 1), the Kd is around 70 nM.

B5: C23S1 (dsDNA)
DNA 1: AGTCATAAAGTTAGGTTCGCCTCACTACT
DNA 2: AGTAGTGAGGCGAACCTAACTTTATGACT
For the molecule B5, in [9], the Kd is around 102 nM.

B6: C10S1 (dsDNA)
DNA 1: CGTACTTTGGTAAAGCTAACCTAAGTCACC
DNA 2: GGTGACTTAGGTTAGCTTTACCAAAGTACG
With B6, the Kd in series [6] (label: 5' FAM on strand 1) is around 116 nM.

B7: Consensus_Full (dsDNA)
DNA 1: CGTACTTAGGTTAGGCTAACCTAAGTACG
DNA 2: CGTACTTAGGTTAGCCTAACCTAAGTACG
In the case of B7, the figures for the Kd in series [10], in [11] and in series [6] (label: 5' Cy5 or 5' FAM on strand 1) were around 65 nM, around 264 nM and around 45 nM, respectively.

B8: Consensus_C1C2-T1T2 (dsDNA)
DNA 1: CGTACTTAAATTAAATTAATTTAAGTACG
DNA 2: CGTACTTAAATTAATTTAATTTAAGTACG
Turning to B8, the binding result in [5] (label: 5' Cy5 on strand 1) is reported as “no binding”.

B9: Minimal_CNTNN (dsDNA)
DNA 1: CGTACGCACGCGATGCTCGCATCCGTACG
DNA 2: CGTACGGATGCGAGCATCGCGTGCGTACG
Turning to B9, in series [5] (label: 5' Cy5 on strand 1), the binding result was “no binding”.

B10: C10S2 (dsDNA)
DNA 1: GATGCTTAGGTTAGCCTACCCGACGCTGA
DNA 2: TCAGCGTCGGGTAGGCTAACCTAAGCATC
Turning to B10, the Kd in [6] (label: 5' Cy5 on strand 1) was around 94 nM.

B11: Consensus_T3-G3 (dsDNA)
DNA 1: CGTACTTCGGTTCGGCGAACCGAAGTACG
DNA 2: CGTACTTCGGTTCGCCGAACCGAAGTACG
Consider B11, for which the binding result in series [5] (label: 5' Cy5 on strand 1) is reported as “no binding”.

B12: Consensus_C2-T2 (dsDNA)
DNA 1: CGTACTTAAGTTAAGTTAACTTAAGTCACG
DNA 2: CGTGACTTAAGTTAACTTAACTTAAGTACG
Turning to B12, in series [6] (label: 5' FAM on strand 1), the Kd is around 105 nM.

B13: Half site (dsDNA)
DNA 1: CGTACCCGGTTTAGGGCCACCTAAGTACG
DNA 2: CGTACTTAGGTGGCCCTAAACCGGGTACG
On to B13, for which the Kd in series [9] was around 78 nM.
